Laboratory results from article PMC8582233 (2021).

B1: Recombinant L-SIGN/CD299 (receptor)
chain: QVSKVPSSLSQEQSEQDAIYQNLTQLKAAVGELSEKSKLQEIYQELTQLKAAVGELPEKSKLQEIYQELTRLKAAVGELPEKSKLQEIYQELTRLKAAVGELPEKSKLQEIYQELTRLKAAVGELPEKSKLQEIYQELTELKAAVGELPEKSKLQEIYQELTQLKAAVGELPDQSKQQQIYQELTDLKTAFERLCRHCPKDWTFFQGNCYFMSNSQRNWHDSVTACQEVRAQLVVIKTAEEQNFLQLQTSRSNRFSWMGLSDLNQEGTWQWVDGSPLSPSFQRYWNSGEPNNSGNEDCAEFSGSGWNDNRCDVDNYWICKKPAACFRDE
B2: Recombinant DC-SIGN/CD209 (receptor)
chain: QVSKVPSSISQEQSRQDAIYQNLTQLKAAVGELSEKSKLQEIYQELTQLKAAVGELPEKSKLQEIYQELTRLKAAVGELPEKSKLQEIYQELTWLKAAVGELPEKSKMQEIYQELTRLKAAVGELPEKSKQQEIYQELTRLKAAVGELPEKSKQQEIYQELTRLKAAVGELPEKSKQQEIYQELTQLKAAVERLCHPCPWEWTFFQGNCYFMSNSQRNWHDSITACKEVGAQLVVIKSAEEQNFLQLQSSRSNRFTWMGLSDLNQEGTWQWVDGSPLLPSFKQYWNRGEPNNVGEEDCAEFSGNGWNDDKCNLAKFWICKKSAASCSRDEEQFLSPAPATPNPPPA

Target: Recombinant SARS-CoV-2 S1 (SARS-CoV-2)
Assay: MST

Binder	Kd [nM]
B1	3.27
B2	3.76
